Experimental data taken from article doi:10.1101/2024.06.01.596940 (bioRxiv, 2024).

B1: human CCL25 (ligand)
chain: QGVFEDCCLAYHYPIGWAVLRRAWTYRIQEVSGSCNLPAAIFYLPKRHRKVCGNPKSREVQRAMKLLDARNKVFAKLHHNTQTFQAGPHAVKKLSSGNSKLSSSKFSNPISSSKRNVSLLISANSGL
B2: human CXCL13 (ligand)
chain: VLEVYYTSLRCRCVQESSVFIPRRFIDRIQILPRGNGCPRKEIIVWKKNKSIVCVDPQAEWIQRMMEVLRKRSSSTLPVPVFKRKIP
B3: human CCL19 (ligand)
chain: GTNDAEDCCLSVTQKPIPGYIVRNFHYLLIKDGCRVPAVVFTTLRGRQLCAPPDQPWVERIIQRLQRTSAKMKRRSS
B4: mouse CXCL17 (ligand)
chain: SPNPGVARSHGDQHLAPRRWLLEGGQECECKDWFLQAPKRKATAVLGPPRKQCPCDHVKGREKKNRHQKHHRKSQRPSRACQQFLKRCHLASFALPL
B5: mouse GPR15L (ligand)
chain: RRHPAKSLKLRRCCHLSPRSKLTTWKGNHTRPCRLCRNKLPVKSWVVPGALPQI
B6: human GPR15L (ligand)
chain: KRRPAKAWSGRRTRLCCHRVPSPNSTNLKGHHVRLCKPCKLEPEPRLWVVPGALPQV
B7: viral macrophage inflammatory protein II (ligand)
chain: GDTLGASWHRPDKCCLGYQKRPLPQVLLSSWYPTSQLCSKPGVIFLTKRGRQVCADKSKDWVKKLMQQLPVTAR
B8: human CXCL17 (ligand)
chain: SSLNPGVARGHRDRGQASRRWLQEGGQECECKDWFLRAPRRKFMTVSGLPKKQCPCDHFKGNVKKTRHQRHHRKPNKHSRACQQFLKQCQLRSFALPL

How the values were obtained:
[1] = target: human GPR182 (untagged), stably expressed on HEK293T cells (human, UniProt O15218 1-404); assay: flow cytometry on cells
[2] = target: T1, mouse GPR182 (untagged), stably expressed on HEK293T cells (mouse, UniProt P43142 1-398); assay: flow cytometry on cells
T1 sequence: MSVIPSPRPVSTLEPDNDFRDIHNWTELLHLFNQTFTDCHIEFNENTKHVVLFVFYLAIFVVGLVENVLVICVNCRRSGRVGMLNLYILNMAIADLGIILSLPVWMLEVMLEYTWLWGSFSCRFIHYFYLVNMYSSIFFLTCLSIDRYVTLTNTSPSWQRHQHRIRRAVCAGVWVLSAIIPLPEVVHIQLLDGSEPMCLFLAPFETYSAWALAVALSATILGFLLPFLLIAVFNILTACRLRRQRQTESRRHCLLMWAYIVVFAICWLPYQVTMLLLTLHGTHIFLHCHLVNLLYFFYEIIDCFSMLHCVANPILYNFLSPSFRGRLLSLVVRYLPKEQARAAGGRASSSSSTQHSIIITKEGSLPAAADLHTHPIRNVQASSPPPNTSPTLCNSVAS

human GPR182 (untagged), stably expressed on HEK293T cells, sequence (O15218 whole entry): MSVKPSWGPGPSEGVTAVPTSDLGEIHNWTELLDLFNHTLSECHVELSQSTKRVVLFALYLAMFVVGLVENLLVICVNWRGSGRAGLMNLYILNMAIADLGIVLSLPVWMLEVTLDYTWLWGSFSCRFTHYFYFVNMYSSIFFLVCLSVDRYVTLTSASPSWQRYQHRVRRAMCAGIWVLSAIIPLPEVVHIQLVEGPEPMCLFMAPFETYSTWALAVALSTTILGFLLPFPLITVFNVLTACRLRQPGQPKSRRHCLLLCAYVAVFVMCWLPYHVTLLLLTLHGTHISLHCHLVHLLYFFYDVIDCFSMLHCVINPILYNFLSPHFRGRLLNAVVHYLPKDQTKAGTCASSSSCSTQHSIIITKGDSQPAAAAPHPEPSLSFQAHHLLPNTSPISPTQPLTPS

| Binder | pIC50 [1] | pIC50 [2] |
| --- | --- | --- |
| B1 | 7.17 |  |
| B2 | 7.67 |  |
| B3 | 7.21 |  |
| B4 |  | 5.61 |
| B5 |  | 7.06 |
| B6 | 8 |  |
| B7 | 7.87 | 6.13 |
| B8 | 7.89 |  |
